Laboratory results as given in patent US20050181450A1, “Novel inositol 1,4,5-trisphosphate (IP3) receptor-binding protein and an IP3 indicator” (priority 2002, published 2005).

What was measured:
Type in all cases: binding
[1] = target: T1, R441Q mutant of GST-IbIIa (Mus musculus, UniProt P11881, R441Q); test: GST pulldown with R441Q; conditions: IRBIT in high salt extract; compared with GST-IbIIa
T1 construct: GST-IbIIa (amino acids 224-604 of mouse IP3R1) and its site-directed mutants K508A and R441Q; made in house
T1 sequence (P11881 224-604 R441Q): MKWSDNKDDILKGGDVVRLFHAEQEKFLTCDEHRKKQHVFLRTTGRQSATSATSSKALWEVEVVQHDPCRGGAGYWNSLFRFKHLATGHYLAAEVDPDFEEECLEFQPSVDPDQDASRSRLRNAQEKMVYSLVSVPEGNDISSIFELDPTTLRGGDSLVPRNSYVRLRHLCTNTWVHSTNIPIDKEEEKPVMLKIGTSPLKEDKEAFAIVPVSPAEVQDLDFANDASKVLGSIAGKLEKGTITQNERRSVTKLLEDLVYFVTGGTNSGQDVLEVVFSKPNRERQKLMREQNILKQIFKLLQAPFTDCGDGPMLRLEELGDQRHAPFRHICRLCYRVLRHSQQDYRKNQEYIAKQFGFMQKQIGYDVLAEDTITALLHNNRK
Excerpt: (§1) The cDNAs encoding the full-length and N-terminal region (amino acids 1-104) of IRBIT were subcloned into the Escherichia coli hexahistidine (His) fusion vector pET-23a(+) (Novagen) to generate IRBIT-His and IRBIT(1-104)-His expression vectors, respectively. The same cDNAs were subcloned into the GST fusion vector pGEX-4T-1 (Amersham Pharmacia Biotech) to generate GST-IRBIT and GST-IRBIT(1-104) expression vectors, respectively. The cDNA fragments encoding the amino acids 1-225, 1-343, 341-923, 600-1248, 916-1581 and 1553-1943 of the amino acid sequence (SEQ ID NO: 7) of mouse IP3R1 were inserted into pGEX-KG to generate GST-Ia, GST-Iab, GST-IIab, GST-IIbIIIa, GST-IIIab and GST-IV expression vectors, respectively. The amino acids 1593-2217 of mouse IP3R1 were inserted into pGEX-4T-1 to obtain GST-IV-Va expression vector. These fusion proteins were expressed in Escherichia coli. GST-EL was expressed in Sf9 cells as described above. […]
(§2) For the determination of the IRBIT binding region and the critical amino acid residue of IP3R1, the diluted high salt extract was subjected to pulldown assay as described above with 100 pmol of GST, GST-EL, GST-Ia, GST-Iab, GST-IbIIa, GST-IIab, GST-IIbIIIa, GST-IIIab, GST-IV, GST-IV-Va, K508A or R441Q, and analyzed by Western blotting with anti-IRBIT antibody.

[2] = target: T2, K508A mutant of GST-IbIIa (Mus musculus, UniProt P11881, K508A); test: GST pulldown with K508A; conditions: IRBIT in high salt extract
T2 construct: GST-IbIIa (amino acids 224-604 of mouse IP3R1) and its site-directed mutants K508A and R441Q; made in house
T2 sequence (P11881 224-604 K508A): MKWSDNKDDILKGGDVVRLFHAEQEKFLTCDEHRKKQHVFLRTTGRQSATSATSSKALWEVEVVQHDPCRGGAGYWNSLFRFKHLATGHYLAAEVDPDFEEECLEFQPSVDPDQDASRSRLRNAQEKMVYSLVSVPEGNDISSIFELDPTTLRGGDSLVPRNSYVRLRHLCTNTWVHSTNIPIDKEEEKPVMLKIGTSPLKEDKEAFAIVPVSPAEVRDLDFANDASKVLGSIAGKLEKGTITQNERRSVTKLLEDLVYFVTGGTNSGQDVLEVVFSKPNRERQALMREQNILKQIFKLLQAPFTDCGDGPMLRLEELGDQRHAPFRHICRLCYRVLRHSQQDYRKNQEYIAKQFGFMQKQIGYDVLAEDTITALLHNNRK
Excerpt: as §1, §2

[3] = target: T3, GST-IIab (mouse IP3R1 amino acids 341-923) (Mus musculus, UniProt P11881); test: GST pulldown with GST-IIab; conditions: IRBIT in high salt extract
T3 construct: made in house; host or cells: Escherichia coli
T3 sequence (P11881 341-923): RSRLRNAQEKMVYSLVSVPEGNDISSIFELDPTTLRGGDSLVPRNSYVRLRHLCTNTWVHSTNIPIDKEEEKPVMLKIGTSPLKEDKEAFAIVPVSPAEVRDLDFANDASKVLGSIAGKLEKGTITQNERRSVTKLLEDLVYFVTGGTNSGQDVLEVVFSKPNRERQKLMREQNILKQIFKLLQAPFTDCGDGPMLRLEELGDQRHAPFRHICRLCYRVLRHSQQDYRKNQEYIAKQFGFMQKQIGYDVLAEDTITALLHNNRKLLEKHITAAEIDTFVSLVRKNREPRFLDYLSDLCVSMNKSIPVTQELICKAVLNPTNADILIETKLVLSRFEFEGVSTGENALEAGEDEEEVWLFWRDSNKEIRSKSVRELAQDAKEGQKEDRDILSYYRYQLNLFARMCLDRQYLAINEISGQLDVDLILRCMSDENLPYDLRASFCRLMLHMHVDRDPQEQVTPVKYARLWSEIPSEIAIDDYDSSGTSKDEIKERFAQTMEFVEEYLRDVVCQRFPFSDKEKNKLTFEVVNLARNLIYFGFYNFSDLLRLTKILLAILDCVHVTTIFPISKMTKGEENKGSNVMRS
Excerpt: as §1, §2

[4] = target: T4, type II phosphatidylinositol phosphate kinase γ (Homo sapiens, UniProt Q8TBX8); test: Co-immunoprecipitation in Cos-7 cells with Myc-PIPKII γ; conditions: overexpressing Cos-7 cells
T4 construct: expressed in transfected cells; host or cells: Cos-7
T4 sequence (Q8TBX8 1-421): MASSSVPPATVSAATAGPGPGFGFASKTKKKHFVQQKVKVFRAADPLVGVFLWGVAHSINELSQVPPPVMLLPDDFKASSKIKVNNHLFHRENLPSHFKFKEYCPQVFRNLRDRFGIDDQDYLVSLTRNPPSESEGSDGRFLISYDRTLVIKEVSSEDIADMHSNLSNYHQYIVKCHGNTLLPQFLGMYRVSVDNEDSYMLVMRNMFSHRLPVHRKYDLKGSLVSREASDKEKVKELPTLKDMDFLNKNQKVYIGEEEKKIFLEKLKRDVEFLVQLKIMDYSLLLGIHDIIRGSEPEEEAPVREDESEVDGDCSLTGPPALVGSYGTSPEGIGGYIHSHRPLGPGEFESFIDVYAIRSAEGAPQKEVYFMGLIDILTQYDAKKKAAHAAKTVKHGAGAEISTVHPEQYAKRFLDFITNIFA
Protocol: (§3) (A and B) IRBIT was transfected into Cos-7 cells with Myc-tagged type II phosphatidylinositol phosphate kinase α, β or γ (PIPKII α, β or γ). After two days, cells were lysed in lysis buffer, followed by centrifugation (100,000×g, 30 min). The supernatants were incubated with 3 μg of anti-IRBIT antibody, rabbit IgG, mouse anti-Myc antibody, or mouse IgG for 1 h at 4° C. After adding 5 μl of Protein G beads and another 1-h incubation, the beads were washed five times with lysis buffer and analyzed by Western blotting with anti-IRBIT antibody or HRP conjugated anti-Myc antibody. Immunoprecipitation of Myc-PIPKII α, β or γ with anti-Myc antibody co-precipitated IRBIT (A). In the reciprocal experiments, immunoprecipitation of IRBIT with anti-IRBIT antibody precipitated Myc-PIPKII α, β or γ.
as §3, with “IRBIT” for “(A and B) IRBIT”, “antibody.” for “antibody. Immunoprecipitation of Myc-PIPKII α, β or γ with anti-Myc antibody co-precipitated IRBIT (A). In the reciprocal experiments, immunoprecipitation of IRBIT with anti-IRBIT antibody precipitated Myc-PIPKII α, β or γ.”

[5] = test system: sodium bicarbonate cotransporter; test: Immunoprecipitation from mouse cerebellum and mass spectrometry; conditions: mouse cerebellar cytosol or microsome detergent extract
Protocol: (§4) Mouse cerebellar cytosol fraction or detergent extract of microsome fraction was immunoprecipitated with 50 μg of anti-IRBIT antibody or rabbit IgG. Immunoprecipitates were separated by 10% SDS-PAGE gel, and stained with Coomassie Brilliant Blue. The bands were excised from the gel and digested with lysyl endopeptidase and analyzed with mass spectrometry. Arrows indicate the bands of sodium bicarbonate cotransporter.
as §4, with “Blue (FIG. 13).” for “Blue.”

B1: IRBIT: novel IP3 receptor-binding protein of 530 amino acids, SEQ ID NO: 1 (protein, listed as Mus musculus)
chain: MSMPDAMPLPGVGEELKQAKEIEDAEKYSFMATVTKAPKKQIQFADDMQEFTKFPTKTGRRSLSRSISQSSTDSYSSAASYTDSSDDEVSPREKQQTNSKGSSNFCVKNIKQAEFGRREIEIAEQDMSALISLRKRAQGEKPLAGAKIVGCTHITAQTAVLIETLCALGAQCRWSACNIYSTQNEVAAALAEAGVAVFAWKGESEDDFWWCIDRCVNMDGWQANMILDDGGDLTHWVYKKYPNVFKKIRGIVEESVTGVHRLYQLSKAGKLCVPAMNVNDSVTKQKFDNLYCCRESILDGLKRTTDVMFGGKQVVVCGYGEVGKGCCAALKALGAIVYITEIDPICALQACMDGFRVVKLNEVIRQVDVVITCTGNKNVVTREHLDRMKNSCIVCNMGHSNTEIDVTSLRTPELTWERVRSQVDHVIWPDGKRVVLLAEGRLLNLSCSTVPTFVLSITATTQALALIELYNAPEGRYKQDVYLLPKKMDEYVASLHLPSFDAHLTELTDDQAKYLGLNKNGPFKPNYYRY
[1]
  binding to R441Q: to the same extent
[2]
  binding to K508A: did not bind
[3]
  interaction with GST-IIab: did not interact
[4]
  interaction with PIPKII γ: interacted
[5]
  interaction with sodium bicarbonate cotransporter: interacted
